Paper PMC10219370, “Exploring Redox Modulation of Plant UDP-Glucose Pyrophosphorylase” (International Journal of Molecular Sciences, 2023)
Residue numbers refer to the chain shown, from its start. In names and notes the source's numbering stands.

Key:
Assay in all cases: purified protein
[1] = substrate: O=P(O)(O)OP(=O)(O)O; type: biochemical, Saccharum hybrid cultivar; conditions: untreated enzyme, UDPG fixed at 2 mM, 5 mM MgCl2, Hepes-NaOH pH 7.5, room temperature
[2] = substrate: O=c1ccn([C@@H]2O[C@H](CO[P@@](=O)(O)O[P@@](=O)(O)O[C@H]3O[C@H](CO)[C@@H](O)[C@H](O)[C@H]3O)[C@@H](O)[C@H]2O)c(=O)[nH]1; type: biochemical, Saccharum hybrid cultivar; conditions: untreated enzyme, PPi fixed at 1 mM, 5 mM MgCl2, Hepes-NaOH pH 7.5, room temperature
[3] = substrate: O=P(O)(O)OP(=O)(O)O; type: biochemical, Hordeum vulgare; conditions: reduced enzyme (2 mM DTT overnight), 5 mM MgCl2, Hepes-NaOH pH 7.5, room temperature
[4] = substrate: O=c1ccn([C@@H]2O[C@H](CO[P@@](=O)(O)O[P@@](=O)(O)O[C@H]3O[C@H](CO)[C@@H](O)[C@H](O)[C@H]3O)[C@@H](O)[C@H]2O)c(=O)[nH]1; type: biochemical, Hordeum vulgare; conditions: reduced enzyme (2 mM DTT overnight), 5 mM MgCl2, Hepes-NaOH pH 7.5, room temperature

B1: sugarcane UGPase (Saccharum hybrid cultivar SP80-3280) (protein)
chain: MAAAAAAEVSVDEKLDKLRAEVAKLDQISENEKAGFISLVSRYLSGEAEQIEWSKIQTPTDEVVVPYDTLASPPEDLEETKKLLDKLVVLKLNGGLGTTMGCTGPKSVIEVRNGFTFLDLIVIQIESLNKKYGCSVPLLLMNSFNTHDDTQKIVEKYSNSNIEIHTFNQSQYPRIVTEDFLPLPSKGKSGKDGWYPPGHGDVFPSLNNSGKLDILLAQGKEYVFIANSDNLGAIVDIKILNHLINNQNEYCMEVTPKTLADVKGGTLISYEGRVQLLEIAQVPDEHVNEFKSIEKFKIFNTNNLWVNLKAIKRLVEAEALKMEIIPNPKEVDGVKVLQLETAAGAAIRFFDKAIGINVPRSRFLPVKATSDLLLVQSDLYTLVDGFVIRNPARANPANPSIELGPEFKKVANFLARFKSIPSIVELDSLKVSGDVWFGSGITLKGKVTITAKSGVKLEIPDGAVLENKDVNGPEDL
notes: active as monomer
**Q.** B1 was tested. Which Km [1] did it give?
**A.** 40 µM

**Q.** What about the Km [2] of the same protein?
**A.** 80 µM

B2: sugarcane UGPase (Saccharum hybrid cultivar SP80-3280; C102S) (protein)
chain: B1 chain with C102S
notes: active as monomer
**Q.** With B2 as the protein, how does the Km [1] read?
**A.** 230 µM

**Q.** And the Km [2]?
**A.** 110 µM

B3: barley UGPase (Hordeum vulgare) (protein)
chain: MAAAAVAADSKIDGLRDAVAKLGEISENEKAGFISLVSRYLSGEAEQIEWSKIQTPTDEVVVPYDTLAPPPEDLDAMKALLDKLVVLKLNGGLGTTMGCTGPKSVIEVRNGFTFLDLIVIQIESLNKKYGCSVPLLLMNSFNTHDDTQKIVEKYSNSNIEIHTFNQSQYPRIVTEDFLPLPSKGQTGKDGWYPPGHGDVFPSLNNSGKLDTLLSQGKEYVFVANSDNLGAIVDIKILNHLIHNQNEYCMEVTPKTLADVKGGTLISYEGRVQLLEIAQVPDEHVDEFKSIEKFKIFNTNNLWVNLKAIKRLVDAEALKMEIIPNPKEVDGVKVLQLETAAGAAIRFFEKAIGINVPRSRFLPVKATSDLLLVQSDLYTLVDGYVIRNPARVKPSNPSIELGPEFKKVANFLARFKSIPSIVELDSLKVSGDVSFGSGVVLKGNVTIAAKAGVKLEIPDGAVLENKDINGPEDI
notes: active as monomer
**Q.** What does the source list for B3?
**A.** Km ([3]; UDPG fixed at 1 mM): 30 µM; Km ([4]; PPi fixed at 1 mM): 40 µM

B4: barley UGPase (Hordeum vulgare; C99S) (protein)
chain: B3 chain with C99S
notes: active as monomer
**Q.** What does the source list for B4?
**A.** Km ([3]; UDPG fixed at 2 mM): 310 µM; Km ([4]; PPi fixed at 5 mM): 110 µM
